Source: article doi:10.64898/2025.12.26.696629

Target: T1, SufR6-229-His6 (holo, [4Fe-4S]) (Mycobacterium tuberculosis H37Rv, UniProt O53151 30-253)
T1 sequence: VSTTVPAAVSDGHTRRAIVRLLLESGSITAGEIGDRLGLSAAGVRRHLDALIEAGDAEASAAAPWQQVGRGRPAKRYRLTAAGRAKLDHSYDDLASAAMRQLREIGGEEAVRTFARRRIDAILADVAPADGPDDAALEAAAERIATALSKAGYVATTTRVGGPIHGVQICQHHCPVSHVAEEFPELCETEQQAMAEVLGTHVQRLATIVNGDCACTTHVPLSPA
Assay: MST

B1: PsufR 50-bp (dsDNA)
DNA 1: CCGATCAACGGAATTTTGTCACACTGATGTTGTGAAAATCCCGGCGGTCT
DNA 2: AGACCGCCGGGATTTTCACAACATCAGTGTGACAAAATTCCGTTGATCGG
Kd: 235 ± 45.8 nM
